From patent US20260216242A1 (ALMAC DISCOVERY, published 2026) come the findings set out here.

Experiment [1] concerns the target T1, Human ALPL (leucine zipper) (human).
T1 construct: Whole entry: fused with a cysteine stabilised leucine zipper and His tag; also called hALPL
T1 chain: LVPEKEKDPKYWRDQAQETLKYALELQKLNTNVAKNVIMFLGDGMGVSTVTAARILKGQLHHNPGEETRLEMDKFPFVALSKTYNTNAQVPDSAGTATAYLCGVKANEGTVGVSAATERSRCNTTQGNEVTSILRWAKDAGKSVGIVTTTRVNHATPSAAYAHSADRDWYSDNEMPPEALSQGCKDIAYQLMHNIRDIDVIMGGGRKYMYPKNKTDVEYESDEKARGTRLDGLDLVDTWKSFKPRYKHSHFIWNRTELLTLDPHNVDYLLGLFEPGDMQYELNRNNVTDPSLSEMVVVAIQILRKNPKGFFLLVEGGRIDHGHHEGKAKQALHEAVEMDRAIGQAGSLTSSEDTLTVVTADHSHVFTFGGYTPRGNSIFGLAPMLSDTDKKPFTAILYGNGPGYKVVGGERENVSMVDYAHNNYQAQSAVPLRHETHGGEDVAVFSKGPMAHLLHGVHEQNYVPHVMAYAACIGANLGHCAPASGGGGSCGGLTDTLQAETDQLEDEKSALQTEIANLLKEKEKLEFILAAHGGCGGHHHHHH
As to the kind of experiment: BLI, antigen immobilised. As to the method: (§1) Binding kinetics were determined using the Biolayer Interferometry (BLI) Octet K2 system (Sartorius). […] All assays were conducted in PBS with a plate temperature of 25° C. Ka (M⁻¹s⁻¹), Kd (s⁻¹) and KD (nM) values were determined using Octet Data Analysis High Throughput software (ForteBio) for Biolayer Interferometry.
(In general: BLI is a label-free optical method that tracks binding on a fibre tip over time.)

The target of experiment [2] is T2, Human ALPP (leucine zipper) (human).
T2 construct: Whole entry: ALPP fused with a cysteine stabilised leucine zipper and His tag; also called hALPP
T2 chain: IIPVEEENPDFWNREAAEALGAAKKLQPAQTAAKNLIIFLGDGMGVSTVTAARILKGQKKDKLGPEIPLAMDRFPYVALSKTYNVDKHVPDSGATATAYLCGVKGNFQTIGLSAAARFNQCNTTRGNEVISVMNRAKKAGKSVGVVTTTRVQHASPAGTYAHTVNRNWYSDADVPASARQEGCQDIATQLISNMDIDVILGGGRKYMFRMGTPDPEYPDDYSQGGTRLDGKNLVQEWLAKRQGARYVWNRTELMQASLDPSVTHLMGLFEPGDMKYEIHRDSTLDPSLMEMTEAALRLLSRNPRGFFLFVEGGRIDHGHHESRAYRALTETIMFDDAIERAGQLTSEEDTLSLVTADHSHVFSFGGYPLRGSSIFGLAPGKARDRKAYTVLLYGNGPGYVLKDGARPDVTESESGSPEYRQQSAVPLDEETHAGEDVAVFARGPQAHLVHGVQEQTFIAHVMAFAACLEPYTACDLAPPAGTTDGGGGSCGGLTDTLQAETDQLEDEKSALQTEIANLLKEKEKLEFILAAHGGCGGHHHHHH
The experiment can be described thus: BLI, antigen immobilised. As to the method:
as §1

The target of experiment [3] is T3, ALPP CysHis (human, UniProt P05187 23-502).
T3 construct: Whole entry: engineered human ALPP with an introduced cysteine and a His tag; homodimer; also called engineered ALPP homodimer; hALPP (ELISA)
The experiment can be described thus: ELISA, antigen coated. An excerpt:
(§2) ELISA was used to test the binding and specificity of the VHHs. […] Anti-Llama—HRP antibody was used for detection.
(ELISA stands for enzyme-linked immunosorbent assay.)

In experiment [4] the target is T4, ALPI His homodimer (human, UniProt P09923 20-503).
T4 construct: Whole entry with His tag; used in ELISA and BLI; also called hALPI
T4 sequence: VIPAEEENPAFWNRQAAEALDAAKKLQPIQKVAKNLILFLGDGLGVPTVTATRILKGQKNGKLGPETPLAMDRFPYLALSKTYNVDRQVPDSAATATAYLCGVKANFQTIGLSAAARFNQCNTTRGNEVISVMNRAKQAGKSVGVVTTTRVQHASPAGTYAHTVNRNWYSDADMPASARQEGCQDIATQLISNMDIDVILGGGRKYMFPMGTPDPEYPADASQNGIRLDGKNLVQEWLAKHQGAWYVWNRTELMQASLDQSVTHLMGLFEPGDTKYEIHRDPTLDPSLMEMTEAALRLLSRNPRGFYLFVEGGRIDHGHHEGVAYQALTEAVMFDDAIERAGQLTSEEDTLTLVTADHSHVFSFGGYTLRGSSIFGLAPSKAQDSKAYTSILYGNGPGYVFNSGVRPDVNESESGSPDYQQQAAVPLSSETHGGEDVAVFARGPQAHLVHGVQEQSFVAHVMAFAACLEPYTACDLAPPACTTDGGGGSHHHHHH
As to the kind of experiment: ELISA, antigen coated.
Source text: as §2

B1: F12 (VHH, not shown: small tags and cut ends)
VHH: QVQLVESGGGLVEAGGSLRLSCAVSGSALSDYNIGWFRQAPGKEREFVARKTWDGSSTKYDDSVKGRFTVSIDNAKNTAYLQMNSLKTEDTAVYYCAAGRYSRVRGWEYDYWGQRTQVTVSS
As to B1, in experiment [1], the binding result is reported as “no binding”. Besides, in experiment [2], the Kd – broadly, a measure of binding affinity in units of concentration – was less than 0.01 nM; the koff (usually a measure of how fast the partners let go of each other) is less than 1e-07 s⁻¹; the kon (commonly the rate constant with which the complex forms) worked out at 38600 M⁻¹ s⁻¹. Besides, in experiment [3], the binding result is “binds”. The binding result in experiment [4] is listed as “no binding (tested: 500 ng VHH)”.

B2: B09 (VHH, not shown: small tags and cut ends)
VHH: QVQLVESGGGSVQAGGSLRLSCAASGPSLSHYAMGWFRQAPGKEREFVAGISWGGGRTSYTDSVKGRFTISRDNAKNTVYLQMNNLKPEDTGVYYCAGRYGRGRNVEYEYDYWGQGTQVTVSS
Regarding B2, the binding result in experiment [1] is reported as “no binding”. In experiment [2], this molecule came in with a Kd of less than 0.01 nM, a koff of less than 1e-07 s⁻¹ and a kon of 237000 M⁻¹ s⁻¹. Also, the binding result in experiment [3] was “binds”. Besides, the binding result in experiment [4] is “no binding (tested: 500 ng VHH)”.

B3: E11 (VHH, not shown: small tags and cut ends)
VHH: QVQLVESGGGSVQAGGSLRLSCAASGPSLSNFAMGWFRQPPGKEREFVAGISWGGGRTSYTDSVKGRFTISRDNAKNTVYLQMNNLKPEDTGVYYCAGRYGRGRNVEYEYDYWGQGTQVTVSS
As for B3, the figures for the binding result in experiment [1], in experiment [3] and in experiment [4] were “no binding”, “binds” and “no binding (tested: 500 ng VHH)”, respectively. Further, the kon in experiment [2] was found to be 149000 M⁻¹ s⁻¹.

B4: H10 (VHH, not shown: small tags and cut ends)
VHH: QVQLVESGGGSVQTGGSLRLSCAASGPSLSNYAMGWFRQAPGKEREFVAGISWGGGRTNYLDSVKGRFTISRDNAKNTMYLQMNSLKPEDAAVYYCAGRYGRGRDVEYEYDYWGQGTQVTVSS
With B4, the binding result in experiment [1] was “no binding”; in experiment [3], “binds”; in experiment [4], “no binding (tested: 500 ng VHH)”. Also, the Kd in experiment [2] turned out to be 0.19 nM. The same molecule registered a koff in experiment [2] of 8.5e-06 s⁻¹. This molecule had a kon in experiment [2] of 45900 M⁻¹ s⁻¹.

B5: F09 (VHH, not shown: small tags and cut ends)
VHH: QVQLVESGGGSVQAGGSLRLSCAASGPSLSNYAMGWFRQAPGKEREFVAGISWGGGRTSCTDSVKGRFTISRDNAKNTVYLQMNNLKPEDTGVYYCAGRYGRGRNVEYEYDYWGQGTQVTVSS
Regarding B5, the binding result in experiment [1] is reported as “no binding”. In addition, in experiment [2], the Kd is less than 0.01 nM, the off-rate (koff) is less than 1e-07 s⁻¹ and the kon came out at 40600 M⁻¹ s⁻¹. Further, in experiment [3], the binding result is given as “binds”. The binding result in experiment [4] is given as “no binding (tested: 500 ng VHH)”.

B6: E12 (VHH, not shown: small tags and cut ends)
VHH: QVQLVESGGGSVQAGGSLRLSCAASGPSISNFAMGWFRQAPGKEREFVAGISWGGGRTNYLDSVKGRFTISRDNAKNMVHLQMNSLKPEDTTVYYCAGRYGRGRDVEYEYDYWGQGTQVTVSS
Take B6: the binding result in experiment [1] is on record as “no binding”; in experiment [3], “binds”; in experiment [4] it was “no binding (tested: 500 ng VHH)”.

B7: H09 (VHH, not shown: small tags and cut ends)
VHH: QVQLVESGGGSVQTGGSLRLSCAASGPSLSNYAMGWFRQAPGKEREFVAGISWGGGRTNYLDSVKGRFTISRDNAKNTMYLQMNSLKPEDTAVYYCAGRYGRGRDVEYEYDYWGQGTQVTVSS
On to B7, for which, in experiment [1], the binding result is “no binding”. In experiment [2], this molecule had a dissociation constant Kd of less than 0.01 nM, a koff of less than 1e-07 s⁻¹ and a kon of 58600 M⁻¹ s⁻¹. Also, the binding result in experiment [3] is “binds”. The binding result in experiment [4] is “no binding (tested: 500 ng VHH)”.
